The target in the assay is Bicaudal-D (D. melanogaster (endogenous in embryos)) (UniProt P16568). As to the kind of experiment: co-IP.

This passage reports reduction of the co-precipitate by RNase results from paper doi:10.1101/2025.09.30.679481.

Sequence of UniProt P16568 (P16568 whole entry): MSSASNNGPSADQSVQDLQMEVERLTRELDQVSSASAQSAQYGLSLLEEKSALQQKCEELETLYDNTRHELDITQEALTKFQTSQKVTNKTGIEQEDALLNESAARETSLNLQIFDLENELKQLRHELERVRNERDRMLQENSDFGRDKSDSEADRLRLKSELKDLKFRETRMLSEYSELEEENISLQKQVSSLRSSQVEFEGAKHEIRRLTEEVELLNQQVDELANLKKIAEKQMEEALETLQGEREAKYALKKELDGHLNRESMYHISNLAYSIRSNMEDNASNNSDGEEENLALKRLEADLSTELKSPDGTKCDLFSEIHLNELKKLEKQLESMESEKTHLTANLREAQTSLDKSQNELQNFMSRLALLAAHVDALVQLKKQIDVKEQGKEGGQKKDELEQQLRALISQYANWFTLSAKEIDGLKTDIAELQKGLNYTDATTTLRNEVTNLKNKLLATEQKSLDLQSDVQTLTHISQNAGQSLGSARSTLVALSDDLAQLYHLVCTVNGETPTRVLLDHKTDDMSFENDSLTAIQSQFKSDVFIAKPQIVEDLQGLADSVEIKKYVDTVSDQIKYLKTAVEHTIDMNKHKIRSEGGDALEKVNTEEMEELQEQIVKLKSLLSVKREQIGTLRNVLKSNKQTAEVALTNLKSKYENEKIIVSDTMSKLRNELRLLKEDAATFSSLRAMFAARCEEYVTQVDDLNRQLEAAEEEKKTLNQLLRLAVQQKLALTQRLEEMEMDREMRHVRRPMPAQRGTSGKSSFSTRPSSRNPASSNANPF

As to Imp (natural protein), the reduction of the co-precipitate by RNase worked out at 84%.
